This is an account of results in the supplement of paper PMC12764529.

± gives the half width of the 95% confidence interval.

Series [1] can be described thus: folding stability dG unfold from trypsin proteolysis; higher = more stable. The method, boiled down: (§1)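 Mini-proteins designed to be under 80 residues and free of cysteine were carried in a PA-tagged cDNA display construct and digested with trypsin and with chymotrypsin. Each protease was applied at 11 threefold-diluted concentrations, alongside a no-protease condition, before sequencing. K50 came from Bayesian fitting of the sequencing counts, and unfolding free energy was obtained by comparing it with a sequence-predicted unfolded-state K50 and a shared folded-state K50, for each protease separately or for both together. Designs were retained only if their AlphaFold2 dimer inter-PAE exceeded 15.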

Series [2] in a line: folding stability dG unfold from chymotrypsin proteolysis; higher = more stable. The method, boiled down:
as §1

Series [3] can be described thus: folding stability dG unfold (combined trypsin and chymotrypsin); higher = more stable. The method, boiled down:
as §1

On to “SAGGSAGGSDPDLDIPPAPLEEIYIPGTGRLLVLYEPTGLVAAYPPSGSFEIGVYDPETGKISSAGGSAGGS [r12_420_TrMRF]”, for which the “folding stability dG unfold” value in series [1] is -0.0997 ± 0.305 kJ/mol; in series [2], -3.24 ± 1.26 kJ/mol; in series [3] it was -1.24 ± 0.502 kJ/mol.
In the same order, the values of “SAGGSAGGSDPSEVRLTFTVTVELTFDAVLFYEPGTGRLVAVAPYLRVEVEVEVTLTFPADALSAGGSAGGS [r12_600_TrMRF]” are 13.3 ± 0.402 kJ/mol, 21.1 ± 0.46 kJ/mol and 19.4 ± 0.879 kJ/mol.
On to “SAGGSAGGSDRYLAVVFVRRADDPTPEVRTFTGIRTLADVERAVADALPADVAEVRIVVFPVRSAGGSAGGS [r20_29_TrMRF]”, for which the “folding stability dG unfold” value in series [1] was 6.63 ± 0.23 kJ/mol; in series [2], 7.6 ± 0.502 kJ/mol; in series [3] it was 7 ± 0.502 kJ/mol.
Consider “SAGGSAGGSDTLEYEVPLEDGSTIRITLFPDGTARVELEDGTPVAEIEVPPDTSIEELIARIRSAGGSAGGS [r12_990_TrMRF]”, for which the “folding stability dG unfold” value in series [1] is 11.5 ± 0.339 kJ/mol; in series [2], 8.6 ± 0.264 kJ/mol; in series [3] it was 10.2 ± 0.318 kJ/mol.
For the sequence “SAGGSAGGSDTPTINIPPGMGNPEQAIEQLKEIREHFPPGKKISISAPGGWKPELKEAGLITVSAGGSAGGS [r12_992_TrROS]”, the “folding stability dG unfold” value in series [1] was -1.55 ± 0.46 kJ/mol; in series [2], 5.14 ± 0.335 kJ/mol; in series [3], 2.14 ± 0.46 kJ/mol.
For “SAGGSAGGSDVEVEEVDVEIEVNGKKFKVKIYRNKKDKNRYYIFFEDTGKVFEIDKNGNIRPLSAGGSAGGS [r12_580_TrROS_Hall]”, the “folding stability dG unfold” value in series [1] worked out at 11.5 ± 0.418 kJ/mol; in series [2] it was 14.6 ± 0.184 kJ/mol; in series [3] it was 13.5 ± 0.268 kJ/mol.
As for “SAGGSAGGSDVEVTVTLEYDEETGVLYVTAEVRDKETGRTVRVVVKFDLETNEWEVVAVEVLPSAGGSAGGS [r20_163_TrROS_Hall]”, the figures for the “folding stability dG unfold” value in series [1], in series [2] and in series [3] were 12.2 ± 0.669 kJ/mol, 17.8 ± 0.669 kJ/mol and 16.4 ± 0.46 kJ/mol, respectively.
Taken in the same sequence, the figures for “SAGGSAGGSDVSEEELRAIAEEIAAELGLSDITVEVEKLPTAVVRITITNPATGETIEIEVPESAGGSAGGS [r12_1000_JUSTAS]” were 7.33 ± 0.159 kJ/mol, 7.4 ± 0.255 kJ/mol and 7.48 ± 0.197 kJ/mol.
On to “SAGGSAGGSDVTVTEYDVTLTVDVTFTAPDANGNPVTTTTPVTIPLKVTVFDFGTARLVVVEGSAGGSAGGS [r20_58_TrMRF]”, for which the figures for the “folding stability dG unfold” value in series [1], in series [2] and in series [3] were 12 ± 0.364 kJ/mol, 16 ± 0.201 kJ/mol and 14.9 ± 0.243 kJ/mol, respectively.
Taken in the same sequence, the figures for “SAGGSAGGSDYEYENEKDPDGQTKMKMRPKPPPVTVEVLIKLPNGLYFPIEITIYGNHITISISAGGSAGGS [r12_784_TrROS]” were 9.1 ± 0.502 kJ/mol, 10.5 ± 0.314 kJ/mol and 9.69 ± 0.962 kJ/mol.
In the case of “SAGGSAGGSDYKIEIEVEPMDPEDGYYQVELEIYDPNNGEPKEKIPVHMDSPEDAKDAIKELISAGGSAGGS [r12_26_TrROS]”, the “folding stability dG unfold” value in series [1] stood at 2.09 ± 0.377 kJ/mol; in series [2], 1.51 ± 0.1 kJ/mol; in series [3], 1.91 ± 0.351 kJ/mol.
As for “SAGGSAGGSEEELKKLLDNIKEVKVVENENGEKYVVFTVTDKNGKKITIVAKSPEARELAKKLSAGGSAGGS [r12_466_TrROS_Hall]”, the entries for the “folding stability dG unfold” value in series [1], in series [2] and in series [3] were 6.05 ± 0.276 kJ/mol, 9.83 ± 0.192 kJ/mol and 8.18 ± 0.46 kJ/mol, respectively.
In the case of “SAGGSAGGSEEKTVLARIKITFPDGEKREIEVEMTLDELKKLLEELGLSEEEVKIEVELVPLPSAGGSAGGS [r20_154_TrROS_Hall]”, the “folding stability dG unfold” value in series [1] is 16.7 ± 0.46 kJ/mol; in series [2] it was 14.9 ± 0.297 kJ/mol; in series [3], 15.9 ± 0.364 kJ/mol.
On to “SAGGSAGGSEEREYVEVEFEFLARLEDGSLLVTRVRLLLPAEPAELRPEVRSEVLPLAPGEELSAGGSAGGS [r12_811_TrMRF]”, for which the “folding stability dG unfold” value turned out to be 6.2 ± 0.297 kJ/mol in series [1], 11.3 ± 0.264 kJ/mol in series [2] and 9.3 ± 0.669 kJ/mol in series [3].
As to “SAGGSAGGSEFYVIKIKNPETKKEIELVFEGSEEEIKAAIEELAKKPNLKIEIKKIKVSKEELSAGGSAGGS [r12_92_TrROS_Hall]”, the figures for the “folding stability dG unfold” value in series [1], in series [2] and in series [3] were 6 ± 0.356 kJ/mol, 7.44 ± 0.31 kJ/mol and 7.92 ± 0.753 kJ/mol, respectively.
Consider “SAGGSAGGSEITILIKDENGYLIKVKVELKLKKNKDGKKTLELKIEITEIYKVPSKEEAKKLLSAGGSAGGS [r12_915_TrROS_Hall]”, for which the “folding stability dG unfold” value in series [1] amounted to 3.16 ± 0.418 kJ/mol; in series [2] it was 8.69 ± 0.46 kJ/mol; in series [3], 7.43 ± 0.92 kJ/mol.
Regarding “SAGGSAGGSEKEIVLVVKSKEDALKAAEELAKALGLEVEVEVIEVKTLENGEKYVVVKITIKDSAGGSAGGS [r12_924_TrROS_Hall]”, the “folding stability dG unfold” value worked out at 15.7 ± 0.669 kJ/mol in series [1], 15.5 ± 0.381 kJ/mol in series [2] and 15.7 ± 0.837 kJ/mol in series [3].
Taken in the same sequence, the figures for “SAGGSAGGSEKPVLIVKVKVKNPKTKKWEEKTIEVPEGVKTPEEVAKALEKEFGDVVKVEILPSAGGSAGGS [r12_942_TrROS_Hall]” were 5.22 ± 0.268 kJ/mol, 7.78 ± 0.46 kJ/mol and 6.84 ± 0.795 kJ/mol.
